Results taken from the DeepSol protein solubility set.

Test: soluble on expression in E. coli; label from the status in PepcDB or PDB records
In the case of “MGSDKIHHHHHHMKKLHGFENEYLFVLPPVILNNFNFSKVIKLLYITDLGFYPKARYHFVHRDRGTEEWILIFCTHGKGVVKSATEEWLIESGSIVLLPPGKEHTYYAFDDDPWDIFWAHFNGDSVNEYIPQEALQGNGFLVINKTSTEDMQMLMSQFWQMIQALSAGFSYQSVFYSSQVLGATLAYVSLQSVLPHDSYTMGNEYITKAVKYIYDHFEEKVSLSTLTEVLDVSKSYLSRIFRQTVGTSVNQFILDIKMKQACYYLKDTNLAVHQIASRLGYDDPYYFSRIFKKVVGSSPRVFRKQEKNRL”, the “soluble on expression in E. coli” value is reported as “not soluble”. With “MGSDKIHHHHHHMKKLIAGVLVLTILGSCGNKKTNIDPFASITQEVDSIRHKADSIHQEELPEEPKPTEADESFDDFIYNFASDDALQRQRVKFPLPYYKGDEKTNIEERNWKHDDLFTKQHYYTLLFDKEEDMDLVGDTSLTSVQVEWIFVKTRMVKKYYFERIKGAWILEAINLRPVERNENEDFVEFFSHFAADSLFQSRRVQEPLAFVTSDPDDDFSILETSLDLNQWFAFKPALPTDRLSNINYGQRNDDNSPTKILALKGIGNGFSNILYFRRKAGEWQLYKFEDTSI” the “soluble on expression in E. coli” value was “not soluble”. With “MGSDKIHHHHHHMKKLLFIVNVDWFFISHRLPIAIDALKKGYTVTIACHFTSHKQELIDMGFNVLEIPFSRSGAGILSELNTLKCIRKVINDVNPSLIHAVTIKPVLYTGLVLKSINRNIPFVAAISGLGYVFTASTLRAKLTRFIASAFYKVALSQKYKMVIFQNTSDENILTKVAKLESSDKFLIKGSGADLSVYNFSPENLDNRTSIVMACRLLREKGVYVYVDAAKLVKEHFPEAEFLLVGTPDLENPNTVKQVEIDQWVSDGTIKYLGHRNDIPSIFANSNIVCLPSFYGEGVPKVLIEAAACGRAIVTTDNPGCKDAIINEVTGIAVPVRDAQSLALAIIKLLDDPALRISMGKKGRSFAEQEFDVRAVVTKHLDIYNELLQK” the “soluble on expression in E. coli” value was “not soluble”. With “MGSDKIHHHHHHMKKLLRNLFGSGREEEKRSASDAMSGREQIVTNSEKSNLSTDPDHVNRQADTLKFDAIRAMNMGELVFATEALRKAMELRPEFETRYYLTEALLRRHLTEEALAQMNLLLEEVPMHTATLLNRAKLRLEQNDPSRALEDCGTGIESTSELEEQALFLYYGASAMKDMKNLKDALCLLKQAIEKNDAFIPARLLRARILIDLERYEEATQDLDWVAASDPEEEQVPMLRARLFMLEGKQQNAIQAYEELLSLDPFNEEGHCGIATLMIKEGRSAEAETFLREAIEEMPVQRNLILMLVEILENKGQTQEAAEWRAKLPEAEVESEAVNFNDLYKGNLY” the “soluble on expression in E. coli” value was “not soluble”. In the case of “MGSDKIHHHHHHMKKMLKPFYNWLRLKLQFLEEAYYFWLLLCRHNASVNTEASMKKMQYILLREAHVIEKGMSMRNPRKGFGQAKILIMLQNLNRYYDLYSTEDLDFLKFPISTVGSYIQYTNEMGIDITKIEQQYLNLVSRTGFQNLNRHSGIESIAKSDILKECNKTFESLLYSRHSIRYFDNKIPSKEMLEKALKLASRTPSACNRQGWLTHIFIGEKSYSLLQWQGGSNGFEKEIHCSILVTANLNAFLSYEVHQAYVDGGLYAMNLLNALHSLGLGTIPLSCGFGYSKLRMLKKQFYIPENEVPIMIIGVGELLDHFNVAISMRRDVSTTNTYHY”, the “soluble on expression in E. coli” value is reported as “not soluble”. In the case of “MGSDKIHHHHHHMKKVLTAALLMTAPFMANAGADFVKGDKTFAGEAELGATLTTGNTDTSSYKGRLNFKHELGDWENQYLLEGLYKEDTGAVTAKRYLAGAQGNYKMNDRSYWFANANYEVDPFTGYDYTLSGATGYGHRLLDTSKTFLDVEIGPGYIYQRLDSEQALLEGTDSNDSVVAHGVINFETEITETSKFQQRFVADYGEKLDARSETSLTANIIGALAMKFAIIVRYNSEPLDDKKSTDTETNMTLLYSF”, the “soluble on expression in E. coli” value is reported as “not soluble”. In the case of “MGSDKIHHHHHHMKLAVYVHVPFCKSKCVYCDFYSVVSEKFDEYFSHLLREIDLYEEVLSESEIKTVYFGGGTPSVVPPSFLKMVLEKLERVSRGFTPDEITIEVNPESVETEKLKIYKQIGINRISLGVQACDDTVLKNAGRLYKEETLKKKAKIVLEQFENVNFDFILGLPGETDITLKKDFRFLEEFPPQHVSLYLLEVDERTRLFDLIQKGLVELPEEDDVERRHDLFVEFLKERGFLRYEISNFAKPGKKSLHNLFYWRNENYLGLGVSAGGHIGRFRYVNASDLKEYEEKITKGELPYEYVHENTEEEEALETVFMGLRIKEGVELNRVKILLPLLEKLQKKYPCYLKVKNGKIFLSEDGMNFSKKILSDLIEWYREGGR”, the “soluble on expression in E. coli” value is reported as “not soluble”. With “MGSDKIHHHHHHMKLETIDYRAQDSAQRFVESLRETGFGVLSNHPIDKALVDTIYEEWQAFFNSDEKHDYLFKPETHDGFFPADVSETAKGHTVKDIKEYYHVYPWGRIPDSLRENILRYYQEANALAEELLGWVEAHTPAEVAVNYSIALPKMIENSHKTLLRILHYPPMSGDEELGAIRAAAHEDINLLTVLPAANEPGLQVKAKSGEWLDVPSDFGNLIINIGDMLQEASGGYFPSTTHRVVNPEGADKTRSRISLPLFLHPKPEVVLSERYTADSYLMERLRELGVI” the “soluble on expression in E. coli” value was “not soluble”. For “MGSDKIHHHHHHMKLGLLTAPFAETPLADVAAWASSAGFEALEIACWPKTSGATRRYAGTSHIDAASTSPAQAKEITASLAEKHLTISGLGYYPNPLHPDAAHREAVIGHLKKVIELAANMGVPVVNTFCGGDASKTVDVNWQDALKVWPEIVAFARGHGIKLAFENCPMIFSYDEWPGGHNIAYSPQVWRRILETWGGDIGMNFDPSHLVWQMIDQARFIREFGPYMLHVHAKDLMIDHDGLYERGILSAGIGWQVPRMPGLGDVDWSGFFSGLYRAGYDGSVIIEHEDRRFEGSDEQVKRGFLLARDVLRPYVK”, the “soluble on expression in E. coli” value was “not soluble”. In the case of “MGSDKIHHHHHHMKLISVKRIWEQGAHNAFTDLIRFQGALFCVFREGTAHVSPDGALRILRSADLGDTWQSVALIRSDEADLRDGKLIEYQGELLLLGGGTLHDKSGLQSHLWRSLDGLVWSDALKIGDKGYWLWRLTEYQNALYGVGYRAGPDGDTRLYKSDDGVQFETWLMVFNNQGYVNESAIVFDQDNGFCLLRRDPVWGPEYVGLLGCSQAPFIDWQWQELDKRIGGPVMLMYQSRLLAVVRLYDEQVRTALVEIHPDTGVVQELLTLPSKGDTSYAGVVIDGNELWVSYYSSHEIANAQLDAQNVQNESSISTQAKTMIYFAKIQLVGEF”, the “soluble on expression in E. coli” value is reported as “not soluble”. With “MGSDKIHHHHHHMKLITFVCAAFLCLPSLAQEKFPDGTPVSDWFKDSKIVDINTLGKKYILTDYGVINDSTLLQTEKIQSAIDAAAQNGGGVIVIPKGTYLSGALFFKPKTHLHLEEGAVLKGSDDISNFPIIDTRMEGQSLKYFAALVNADKVDGFTLSGKGTIDGNGLRYWKSFWLRRKVNPQCTNMDELRPRLVHISHSNNVQLSGVRLINSPFWTTHLYKCNHIKLLNLYIFSPEKPVKAPSTDAIDIDVCSNVLVKNCYMSVNDDAIALKGGKGPWADQDPNNGGNFNIIIEDCTYGFCHGALTCGSESIHNRNIILRRIHITNANRLLWLKMRPDTPQQYEYILVEDITGDADHFLYIKPWTQFFDLKDRKDIPVSYSNHVTMRNIDFKCDNFFSVEKSDQYQLTNFTFENLNIKAKNGECDKEMIDNFIWKKVSINNIK” the “soluble on expression in E. coli” value was “not soluble”. In the case of “MGSDKIHHHHHHMKLLMIELHQEDCSNIAVSEKIKDAELNLVNVREDGDYTHIDAIFLGDMFKENVISTLRKEKAFNINLKMKSRSEIWVSYDILTTAAWRNFSSLGCTVVPPLRVANGVEKWFVYTPDEISQRDIKRQLEMDNATHISRIRELTLKSFLKVIFNMDFLSDFIDTMEALTDLQVKTIKQAYVNGYYDYPRRCTLGDLAKINGISKNAMAKRLKSVEKKIFECLFGYI”, the “soluble on expression in E. coli” value is reported as “not soluble”. In the case of “MGSDKIHHHHHHMKLRCAIVDDEPLALSLLESYVNKTPFLELAGKYSSAVQAMKELPGNQIDLLFLDIQMPELNGLEFSKMVAPRTRIVFTTAFGQYAIDGYRVNALDYLLKPISYVDFLQAANKALQWFELVQKPEEVDSIFVKSDYKLVQVELKKILYIEGLKDYIKIYTEDAPKPILSLMSMKSMEELLPPARFMRVHRSFIVQKDKIRIIDRGRIVFDKTYIPVSDSYKQTFQTFLDERS”, the “soluble on expression in E. coli” value is reported as “not soluble”. In the case of “MGSDKIHHHHHHMKLSINKNTLESAVILCNAYVEKKDSSTITSHLFFHADEDKLLIKASDYEIGINYKIKKIRVESSGFATANAKSIADVIKSLNNEEVVLETIDNFLFVRQKSTKYKLPMFNHEDFPNFPNTEGKNQFDIDSSDLSRSLKKILPSIDTNNPKYSLNGAFLDIKTDKINFVGTDTKRLAIYTLEKANNQEFSFSIPKKAIMEMQKLFYEKIEIFYDQNMLIAKNENFEFFTKLINDKFPDYEKVIPKTFKQELSFSTEDFIDSLKKISVVTEKMRLHFNKDKIIFEGISLDNMEAKTELEIQTGVSEEFNLTIKIKHLLDFLTSIEEEKFTLSVNEPNSAFIVKSQGLSMIIMPMIL”, the “soluble on expression in E. coli” value is reported as “not soluble”. With “MGSDKIHHHHHHMKLVEITREEIRGDLVGLVPVGSIEQHGPHLPMGTDGIISEYIASKAEEKLKDITLLFPTIYYGVSLEHKGFPFVSLSFQTAISFFTDLLESVFNDLGLRRIIIVNGHGGNSYFLPLVQREFNMKHSDAKVIVFNTFGEEEKILFNVNDLHAGTIETSKIWAIGKSLVRVNKIDEIKNYEVRDGVFIYYSSREANQFGVLNDGKPIRVNEEYGKKILRDLVDKLIWTILNFKV” the “soluble on expression in E. coli” value was “not soluble”. In the case of “MGSDKIHHHHHHMKLVFRWYGEKHDTVTLEQIRQIPGVEGVVGALFDIPVGEVWPFEEIMKLKETVEKAGLKLEVIESVNVHEDIKLGLPTRDRYIENYKKTIRNLAKAGVKVVCYNFMPVFDWMRTDLHKKLPDGSETMEYDHRLIEGVTPDELIKRVKEGSQGFVLPGWEWDRLEKLRETFELYKNVDEEKLFENLVYFLERVIPVCEECDVKLAIHPDDPPWSIFGLPRIITNKENIERMLKAVDSPYNGITFCMGSLGANPENNIPEMIRYFGKMGRIHFAHVRNLKFTGEKSFYETAHPSFCGSHDLFEVMKAFHDIGYEGYIRPDHGRLIWGEKARPGYGLYDRALGATYILGLWEAIDKMKKRYC”, the “soluble on expression in E. coli” value is reported as “not soluble”. With “MGSDKIHHHHHHMKNLFLYCRAGYEKDCAAEIQQRAAELGIGGFVKANRDDAYVVFQGFSPDDGDRLAKELPLDSLIFARQMFACGDLLDDFSPEDRVTPIAESLTEVERAGELRVETPDTNEAKELSAFCRKFTVPLRQALKKRGVLLDKESSRRPIVHVCFVAPNKAFTGYSLSNNSSPHFMGIPRLKFPADAPSRSTLKLDEAFIHFIPREEHETRLRSGLNAVDLGACPGGWTYQLVRRGMMVHAIDNGPMNHDLMETGQVTHHRADGFKFEPARRNIYWLVCDMVEKPARVAELMEYWAIQGWFKEAIFNLKLPMKSRYKEVSQILANMHAILKENGIHEFHLACKHLYHDRDEVTVHLWLRPSSPWI” the “soluble on expression in E. coli” value was “not soluble”. With “MGSDKIHHHHHHMKNNNPPALGQKENAKHGEVFFPVQKYITRLAADYPVITTHWHDEAELTLITKGSCTYQIDLLEYEAKEGDIIFIPPLLLHSISIRDCDEFYSETYVFHINFLGGNNTDICSSRYLTPLINHEFAMPYLIAPKHPAYSSLCKCFMRITNLYSRQEFAYELALKAFLLQAIFLLLQYSEKNADFGVNTSSDKLKNVLDYIDVHYAESIQVAELAGLCYFSEYHFMRFFKKHMNMTCVQYINNVRLEKSVEQFERGNTSILDVSLSVGFHNLSYFHRAFKKRYHMTPLSFIKSLE” the “soluble on expression in E. coli” value was “not soluble”. In the case of “MGSDKIHHHHHHMKNSAPNKDGSIEANLTDLQVQTELYQWLSLVSHQRDKQAFTELFQFFAPKIKRFGMQRLGSNDKANELVQETMSNVWRKAHLYDGEKGAATTWVYTVMRNACFDMLRRIKTRNEQLLGDDIWPVEQALAENNPESETFSDHLMEQHMREHINKLPSSQQTVVKGVYFQSLSQEQLAQQLDVPLGTIKSRLRLALARLKLQMRDEYHD”, the “soluble on expression in E. coli” value is reported as “not soluble”.
